In experiment [1] the target is D20-20K (IL-2 with 20K PEG conjugated at Asp20) (UniProt P60568 21-153, D20 to NAEK, Nε-2-azideoethyloxycarbonyl-L-lysine (NAEK) at position 20, conjugated with DBCO-tethered PEG of 20 kDa by copper-free click reaction). The experiment in a line: SPR. For orientation: Surface plasmon resonance follows binding to a sensor surface in real time, without labels.
Experiment [2] has as its target Y45-20K (IL-2 with 20K PEG conjugated at Tyr45) (UniProt P60568 21-153, Y45 to NAEK, Nε-2-azideoethyloxycarbonyl-L-lysine (NAEK) at position 45, conjugated with DBCO-tethered PEG of 20 kDa by copper-free click reaction). Kind of experiment: SPR.

B1: extracellular domains of the trimeric IL-2 receptor (IL-2Rαβγ) (complex)
chain 1: ELCDDDPPEIPHATFKAMAYKEGTMLNCECKRGFRRIKSGSLYMLCTGNSSHSSWDNQCQCTSSATRNTTKQVTPQPEEQKERKTTEMQSPMQPVDQASLPGHCREPPPWENEATERIYHFVVGQMVYYQCVQGYRALHRGPAESVCKMTHGKTRWTQPQLICTGEMETSQFPGEEKPQASPEGRPESETSCLVTTTDFQIQTEMAATMETSIFTTEYQ
chain 2: AVNGTSQFTCFYNSRANISCVWSQDGALQDTSCQVHAWPDRRRWNQTCELLPVSQASWACNLILGAPDSQKLTTVDIVTLRVLCREGVRWRVMAIQDFKPFENLRLMAPISLQVVHVETHRCNISWEISQASHYFERHLEFEARTLSPGHTWEEAPLLTLKQKQEWICLETLTPDTQYEFQVRVKPLQGEFTTWSPWSQPLAFRTKPAALGKDT
chain 3: LNTTILTPNGNEDTTADFFLTTMPTDSLSVSTLPLPEVQCFVFNVEYMNCTWNSSSEPQPTNLTLHYWYKNSDNDKVQKCSHYLFSEEITSGCQLQKKEIHLYQTFVVQLQDPREPRRQATQMLKLQNLVIPWAPENLTLHKLSESQLELNWNNRFLNHCLEHLVQYRTDWDHSWTEQSVDYRHKFSLPSVDGQKRYTFRVRSRFNPLCGSAQHWSEWSHPIHWGSNTSKENPFLFALEA
By Kd is commonly meant the constant that tells how readily two partners part at equilibrium. As for B1, binding in experiment [1] was characterised by a dissociation constant (Kd) of 58.1 nM.

B2: extracellular domains of the dimeric IL-2 receptor (IL-2Rβγ) (complex)
chain 1: AVNGTSQFTCFYNSRANISCVWSQDGALQDTSCQVHAWPDRRRWNQTCELLPVSQASWACNLILGAPDSQKLTTVDIVTLRVLCREGVRWRVMAIQDFKPFENLRLMAPISLQVVHVETHRCNISWEISQASHYFERHLEFEARTLSPGHTWEEAPLLTLKQKQEWICLETLTPDTQYEFQVRVKPLQGEFTTWSPWSQPLAFRTKPAALGKDT
chain 2: LNTTILTPNGNEDTTADFFLTTMPTDSLSVSTLPLPEVQCFVFNVEYMNCTWNSSSEPQPTNLTLHYWYKNSDNDKVQKCSHYLFSEEITSGCQLQKKEIHLYQTFVVQLQDPREPRRQATQMLKLQNLVIPWAPENLTLHKLSESQLELNWNNRFLNHCLEHLVQYRTDWDHSWTEQSVDYRHKFSLPSVDGQKRYTFRVRSRFNPLCGSAQHWSEWSHPIHWGSNTSKENPFLFALEA
For B2, the Kd in experiment [2] is 32.8 nM.

B3: extracellular domain of the IL-2 receptor β chain (IL-2Rβ) (receptor)
chain: AVNGTSQFTCFYNSRANISCVWSQDGALQDTSCQVHAWPDRRRWNQTCELLPVSQASWACNLILGAPDSQKLTTVDIVTLRVLCREGVRWRVMAIQDFKPFENLRLMAPISLQVVHVETHRCNISWEISQASHYFERHLEFEARTLSPGHTWEEAPLLTLKQKQEWICLETLTPDTQYEFQVRVKPLQGEFTTWSPWSQPLAFRTKPAALGKDT
On to B3, for which binding in experiment [2] was put at a Kd of 690 nM.

B4: extracellular domain of the IL-2 receptor α chain (IL-2Rα, CD25) (receptor)
chain: ELCDDDPPEIPHATFKAMAYKEGTMLNCECKRGFRRIKSGSLYMLCTGNSSHSSWDNQCQCTSSATRNTTKQVTPQPEEQKERKTTEMQSPMQPVDQASLPGHCREPPPWENEATERIYHFVVGQMVYYQCVQGYRALHRGPAESVCKMTHGKTRWTQPQLICTGEMETSQFPGEEKPQASPEGRPESETSCLVTTTDFQIQTEMAATMETSIFTTEYQ
B4 yielded a Kd in experiment [1] of 99.9 nM.
